Measurements: patent publication US12564623B2, “Methods and compositions for treating cancer” (The University of Chicago, priority 2017, dated 2026)

Legend:
E0771 cancer cells [1] = test: ELANE with anti-PD-L1 in a mouse model of TNBC; type: in vivo, C57BL/6 mice; conditions: ELANE 11.6 μg + anti-PD-L1 100 μg
Experimental: E0771 cancer cells were injected into C57BL/6 mice. Once tumors reached ˜100 mm^3, mice were randomly separated into four groups: ELANE (11.6 μg), PMSF-inactivated ELANE (PMSF-ELANE), anti-PD-L1 (BioXCell, 10F.9G2, 100 μg), and ELANE (11.6 μg)+anti-PD-L1 (100 μg). n=8-9 mice/group. Anti-PD-L1 monoclonal antibody was injected intaperitoneally on days 10, 14, 18, and 22 after tumor inoculation. ELANE or PMSF-ELANE were delivered intra-tumorally when tumors reached ˜[…] (˜ 14 days post cancer cell injection). (FIG. 20A) Tumor volume was measured by calipers. (FIG. 20B) Kaplan-Meier curve was plotted and the logrank test (Mentel-Cox method) was used for mouse survival analysis. End point of survival is defined as tumor volume >1000 mm^3. *, p<0.05, Student's t-test.

Cancer cells [2] = test: Killing program signaling in cancer cells (ERK, NFKB, JNK, ROS, H2AX, CASP3, PARP); type: cell-based, Human and mouse; conditions: 50 nM
Experimental: (FIG. 10A) Cancer cells were treated with ELANE (50 nM) for 4 hrs, and phosphorylated and total ERK, NFKB, and JNK were quantified by western blotting. Immunoblots for E0771 cancer cells are shown as an example. (FIG. 10B) Cancer cells were treated with various doses of ELANE for 1 hr and mitochondrial ROS was measured by flow cytometry using CM-H2DCFDA dye. (FIG. 10C) Cancer cells were treated with ELANE (50 nM) and DNA damage was assessed by immunoblotting for phospho-(γH2AX) and total H2AX. Immunoblots for A549 cancer cells are shown as an example. (FIG. 10D) Cells were treated with ELANE (50 nM) for 8 hrs, and full length and cleaved CASP3 (c-CASP3) and cleaved PARP (c-PARP) were quantified by immunoblotting. Immunoblots for LLC1 cancer cells are shown as an example. *, p<0.05, Student's t-test.
ELANE induces a robust killing program in a variety of cancer cells. Human and mouse cancer cells were treated with ELANE and signaling pathways associated with cancer cell death were assessed. Cells were treated with ELANE (50 nM) for 4 hrs, and phosphorylated and total ERK, NFKB, and JNK were quantified by western blotting. Cells were treated with various doses of ELANE for 1 hr and mitochondrial ROS was measured by flow cytometry using CM-H2DCFDA dye. Cells were treated with ELANE (50 nM) and DNA damage was assessed by western blot for phospho-(γH2AX) and total H2AX. […]

E0771 cancer cells [3] = test: E0771 tumors in Rag2-/- versus wild type mice; type: in vivo, C57BL/6 mice; conditions: 11.6 μg intratumorally once/day for 5 days
Experimental: The inventors therefore explored whether ELANE-mediated cancer cell killing could positively influence the immune cells in the tumor. Rag2^−/− mice in C57BL/6 background (no adaptive immunity) and wild type (wt) C57BL/6 mice were both ordered from the Jackson laboratory. E0771 cancer cells were injected into both mouse models. Once tumors reached ˜100 mm^3. ELANE (11.6 μg) or HAS (11.6 μg) were delivered intratumorally once/day for 5 days. Tumor volume was assessed by calipers. Kaplan-Meier curve was plotted and the logrank test (Mentel-Cox method) was used for mouse survival analysis. End point of survival is defined as tumor volume >1000 mm^3.
Adaptive immune cells contribute to ELANE's therapeutic efficacy. Rag2-deficient (Rag2−/−) mice on the C57BL/6 background (no adaptive immunity) and wild type (wt) C57BL/6 mice were injected with E0771 cancer cells. Once tumors reached ˜100 mm^3. ELANE (11.6 μg) or HSA (11.6 μg) were delivered intra-tumorally once/day for 5 days. (FIG. 18A) Tumor volume was assessed by calipers. (FIG. 18B) Kaplan-Meier curve was plotted and the logrank test (Mentel-Cox method) was used for survival analysis. End point of survival is defined as tumor volume >1000 mm^3.

[4] = system: E0771, B16F10, or LLC1 cancer cells; test: Tumoral immune cell analysis by flow cytometry; type: in vivo, C57BL/6 mice; conditions: 11.6 μg intratumorally once/day for 5 days, day 6
Experimental: E0771, B16F10, or LLC1 cancer cells were injected into C57BL/6 mice. Once tumors reached ˜100 mm^3, ELANE (11.6 μg) or PMSF-ELANE (11.6 μg) were delivered intratumorally once/day for 5 days. Tumors were isolated on day 6 and digested for immune cell analysis by flow cytometry. CD45+ cells are the total immune cells; macrophages (Mac) are defined as CD45+CD11b+CD11c^lowMHCII^low, neutrophils (Neu) are defined as CD45+CD11b+Ly6G+, dendritic cells (DC) are defined as CD45+CD11b+CD11c^highMHCII^high, B cells (b) are defined as CD45+B220+, NK cells (NK) are defined as CD45+NK1.1+CD16+, CD4+ T cells (CD4T) are defined as CD3+CD4+CD8−, CD8+ T cells (CD8T) are defined as CD3+CD8+CD4−, CD8 effector T cells (CD8Teff) are defined as CD3+CD8+CD4−CD62L−CD44+. *, p<0.05, Student's t-test. (FIG. 17)

Cancer cells [5] = test: ELANE uptake and killing with endocytosis inhibitor Dynasore; type: cell-based; conditions: ELANE 30 nM, Dynasore 80 μM, 6 hours
Experimental: (FIG. 9A) Cancer cells were treated with ELANE (100 nM) in the presence or absence of a broad endocytosis inhibitor Dynasore (80 μM) for 30 mins. ELANE catalytic activity in cell lysates was assessed by a chromogenic substrate assay. (FIG. 9B) Cancer cells were treated with ELANE (30 nM) in the presence or absence of Dynasore (80 μM) for 6 hours. Cell viability was examined by Calcein AM staining. *, p<0.05, Student's t-test.

[6] = system: MDA-MB-231, A549, MEL888, M1, 4195, E0771, LLC1, B16F10 tumors; test: Tumor growth in xenograft, PDX and syngeneic models; type: in vivo, mice; conditions: 11.6 μg intratumorally once/day for 5 days
Experimental: MDA-MB-231, A549, or MEL888 cells (xenograft model) were injected into athymic nude mice; M1 or 4195 tumors (TNBC PDX models) were propagated in SCID mice; and E0771, LLC1, or B16F10 cells (syngeneic models) were injected into C57BL/6 mice. Once tumors reached ˜100 mm^3, ELANE (11.6 μg), or PMSF-ELANE (11.6 μg) were delivered intratumorally once/day for 5 days. n=8-15 mice/group. Tumor volume was assessed by calipers. Kaplan-Meier curve was plotted and the logrank test (Mentel-Cox method) was used for mouse survival analysis. Day 0 refers to the first treatment day. End point of survival is defined as tumor volume >1000 mm^3. (FIG. 15)

B1: neutrophil elastase (protein, listed as Homo sapiens)
chain: MTLGRRLACLFLACVLPALLLGGTALASEIVGGRRARPHAWPFMVSLQLRGGHFCGATLIAPNFVMSAAHCVANVNVRAVRVVLGAHNLSRREPTRQVFAVQRIFENGYDPVNLLNDIVILQLNGSATINANVQVAQLPAQGRRLGNGVQCLAMGWGLLGRNRGIASVLQELNVTVVTSLCRRSNVCTLVRGRQAGVCFGDSGSPLVCNGLIHGIASFVRGGCASGLYPDAFAPVAQFVNWIDSIIQRSEDNPCPHPRDPDPASRTH
notes: purified native ELANE
B1 was tested, and the “efficacy with anti-PD-L1” value (E0771 cancer cells [1]) was “enables anti-PDL1 efficacy”, the “killing program in cancer cells” value (Cancer cells [2]) was “induces a robust killing program in cancer cells” and the “efficacy in immune competent versus adaptive immunity deficient mice” value (E0771 cancer cells [3]) was “more efficacious than adaptive immunity deficient mice”. For the same molecule, the tumoral immune cells [4] was “increases tumoral immune cells”, the “dependence of killing on uptake” value (Cancer cells [5]) was “internalization is required to kill cancer cells” and the tumor growth [6] was “attenuates tumor growth in many cancer models”.
